Measurements: publication PMC8172134

Molecular target: WIV16 RBD ([change] domain) (bat SARS-like coronavirus WIV16)

Substance human monoclonal antibody 47D11 has an IC50 of neutralization of WIV16-S pseudotyped VSV (luciferase) on VeroE6 cells of 0.165 µg/mL.
